Laboratory results as given in patent US20260022195A1.

T1: human C1s (active form) (human) (UniProt P09871)
T1 sequence 1: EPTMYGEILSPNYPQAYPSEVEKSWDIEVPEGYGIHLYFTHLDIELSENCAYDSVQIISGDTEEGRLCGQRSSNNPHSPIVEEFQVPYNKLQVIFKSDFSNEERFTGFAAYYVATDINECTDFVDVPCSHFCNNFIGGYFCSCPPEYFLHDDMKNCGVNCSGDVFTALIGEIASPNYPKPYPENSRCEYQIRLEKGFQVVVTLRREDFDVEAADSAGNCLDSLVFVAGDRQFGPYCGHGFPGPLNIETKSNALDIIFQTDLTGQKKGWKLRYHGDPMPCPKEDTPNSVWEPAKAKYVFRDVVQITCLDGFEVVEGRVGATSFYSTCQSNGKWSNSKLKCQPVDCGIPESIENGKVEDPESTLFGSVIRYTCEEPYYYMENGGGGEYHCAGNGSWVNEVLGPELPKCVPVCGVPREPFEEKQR
T1 sequence 2: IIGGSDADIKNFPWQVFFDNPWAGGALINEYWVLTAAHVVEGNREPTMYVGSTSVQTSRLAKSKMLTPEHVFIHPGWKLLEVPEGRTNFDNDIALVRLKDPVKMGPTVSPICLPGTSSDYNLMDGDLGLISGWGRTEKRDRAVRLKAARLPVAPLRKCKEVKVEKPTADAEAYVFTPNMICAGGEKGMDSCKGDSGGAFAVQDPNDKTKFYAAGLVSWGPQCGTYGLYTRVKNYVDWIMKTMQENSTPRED

B1: TNT009 (antibody, from another filing, V domains shown)
VH: EVQLVESGGGLVKPGGSLRLSCAASGFTFSNYAMSWVRQAPGKGLEWVATISSGGSHTYYLDSVKGRFTISRDNSKNTLYLQMNSLRAEDTALYYCARLFTGYAMDYWGQGTLVTVSS
VL: QIVLTQSPATLSLSPGERATMSCTASSSVSSSYLHWYQQKPGKAPKLWIYSTSNLASGVPSRFSGSGSGTDYTLTISSLQPEDFATYYCHQYYRLPPITFGQGTKLEIKR
B2: TNT020 (antibody, from another filing, V domains shown)
VH: QVQLVQSGAEVKKPGASVKLSCTASGFNIKDDYIHWVKQAPGQGLEWIGRIDPADGHTKYAPKFQVKVTITADTSTSTAYLELSSLRSEDTAVYYCARYGYGREVFDYWGQGTTVTVSS
VL: DIVLTQSPDSLAVSLGERATISCKASQSVDYDGDSYMNWYQQKPGQPPKILIYDASNLESGIPARFSGSGSGTDFTLTISSLEPEDFAIYYCQQSNEDPWTFGGGTKVEIKR

Target: T1, human C1s (active form) (human)
Assay: cell-based or functional assay

| Binder | IC50 of inhibition of C3b deposition on antibody-sensitized human RBCs (flow cytometry, 5% human serum) [nM] |
| --- | --- |
| B1 | 5 |
| B2 | 6.5 |
